3 molecules from PMC9449495, “Transcription factor VvibHLH93 negatively regulates proanthocyanidin biosynthesis in grapevine” can be followed below.

For data set [1], the target named is T1, VvibHLH93 (Vitis vinifera, UniProt A0ABY9CC89 1-331). As to the kind of experiment: EMSA; LightShift Chemiluminescent EMSA Kit (Thermo Fisher) per manufacturer's protocol; buffer, salt, pH and temperature not stated. As to conditions: protein: recombinant, tags: His (pET-32a fusion), chain copies: 2. On the technique in general: In EMSA bound probe runs differently from free probe, usually more slowly.

In data set [2] the target is T1, VvibHLH93. The experiment in a line: competition; 50x unlabeled competitor vs N1; shifted band less abundant; LightShift Chemiluminescent EMSA Kit (Thermo Fisher) per manufacturer's protocol; buffer, salt, pH and temperature not stated. Conditions: protein: recombinant; tags: His (pET-32a fusion); chain copies: 2.

T1 sequence (A0ABY9CC89 entry or part of it): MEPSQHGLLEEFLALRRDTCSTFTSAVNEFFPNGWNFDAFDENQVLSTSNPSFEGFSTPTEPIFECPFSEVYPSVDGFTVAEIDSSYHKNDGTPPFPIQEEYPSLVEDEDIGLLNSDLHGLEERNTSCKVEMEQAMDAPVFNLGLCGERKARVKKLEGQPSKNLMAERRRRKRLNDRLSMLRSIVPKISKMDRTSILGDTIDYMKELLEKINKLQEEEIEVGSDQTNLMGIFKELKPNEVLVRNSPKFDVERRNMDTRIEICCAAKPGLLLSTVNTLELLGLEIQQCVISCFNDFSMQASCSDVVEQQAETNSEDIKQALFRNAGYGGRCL

B1: VviLAR1 promoter E/G-box mutant probe (dsDNA)
DNA 1: GAGTCGTTGAGGTATATCATTTTTTTGTTAGAAAATCTTATG
DNA 2: CATAAGATTTTCTAACAAAAAAATGATATACCTCAACGACTC
Consider B1, for which the binding result with VvibHLH93 [1] was “no binding”.

B2: VviLAR1 promoter E/G-box probe (tandem MYC and G-box) (dsDNA)
DNA 1: GAGTCGTTGAGGCACATGATTTTTTTGTTAGGACGTGTTATG
DNA 2: CATAACACGTCCTAACAAAAAAATCATGTGCCTCAACGACTC
Consider B2, for which the binding result in the data set with VvibHLH93 [1] (label: 3' biotin) is reported as “binds”.

B3: VviLAR1 promoter E/G-box cold probe (dsDNA)
DNA 1: B2 DNA 1
DNA 2: B2 DNA 2
In the case of B3, the binding result with VvibHLH93 [2] is listed as “binds”.
